The text below walks through data of patent publication US20070071744A1.

Test in all cases: PepSpot peptide array
The target of one test is T1, peptide 117 (human).
T1 sequence (peptide, N-terminus acetylated): SFTNKVFTTETSR

Another test concerns the target T2, peptide 118 (human).
T2 sequence (peptide, N-terminus acetylated): TNKVFTTETSRSI

Another test deals with T3, peptide 7 (human).
T3 sequence (peptide, N-terminus acetylated): LCLGRVPAQSGPL

B1: monoclonal antibody hGP 5C4 (antibody, V domains shown)
VH: EVKLQESGGGLVQPGRSLKLSCTASGFTFSDYFMSWVRQAPTRGLEWVASISSGGASAYWRDSVKGRFTISRDNAKSALYLQMDSLRSEDTATYFCARGELDFDYWGQGVMVAVSS
VL: ADPNSTLLSASVGDRVTLNCTASQNVYKNLAWYQQKLGEAPRLLLYSANSQTGIPSRFSGSGSGPDFTLTISSLQPEDVASYFCQQYYSGNTFGAGTKLELKR
For B1, the results for the LU (Light Units) in the test with peptide 117 (human), in the test with peptide 118 (human) and with peptide 7 (human) were 472 LU, 336 LU and 292 LU, respectively.
